Source: patent US20240124615A1 (HEFEI TG IMMUNOPHARMA, published 2024)
Numbering of substitutions follows the chain as printed.

B1: CD3xB7H6-17 bispecific antibody (bispecific antibody, human IgG1, L234A L235A)
chain 1: not shown
chain 2: DIVLTQSPVSLAVPLGQRATISCKASQSVDYDGDSYMNWYQQKPGQPPKLLIYAASTLHSGIPVRFSGSGSGTDFTLNIHPVEEEDAASYYCQQSKEDPRTFGGGTKLEIKGGGGSGGGGSGGGGSEVLLQQSGPEVVKPGASVKITCKASGYTFTDYNMDWVKQSHGKSLEWIGDINPNNAGTLYNQKFRGRVTLIVDKSSSTAYMELRSLTSDDTAVYYCARSEVFYGNYADYWGQGTTLTVSSEPKSCDKTHTCPPCPAPEAAGGPSVFLFPPKPKDTLMISRTPEVTCVVVDVSHEDPEVKFNWYVDGVEVHNAKTKPREEQYNSTYRVVSVLTVLHQDWLNGKEYKCKVSNKALPAPIEKTISKAKGQPREPQVCTLPPSRDELTKNQVSLSCAVKGFYPSDIAVEWESNGQPENNYKTTPPVLDSDGSFFLVSKLTVDKSRWQQGNVFSCSVMHEALHNHYTQKSLSLSPGK
notes: Heterodimer of two scFv-Fc units, knob-into-hole human IgG1 Fc; name formed by analogy with CD3xB7H6-14
B2: CD3xB7H6-18 bispecific antibody (bispecific antibody, human IgG1, L234A L235A)
chain 1: not shown
chain 2: B1 chain 2 with G33A, A182G
notes: as for B1
B3: CD3xB7H6-11 bispecific antibody (bispecific antibody, human IgG1, L234A L235A)
chain 1: not shown
chain 2: DIVLTQTPLSLSVTPGQPASISCKASQSVDYDGDSYMNWYLQKPGQPPQLLIYAASTLHSGVPDRFSGSGSGTDFTLKISRVEAEDVGVYYCQQSKEDPRTFGQGTKLEIKGGGGSGGGGSGGGGSEVQLVQSGAEVKKPGASVKVSCKASGYTFTDYNMDWVRQAPGQGLEWIGDINPNNGGTLYNQKFRGRVTLTVDKSISTAYMELSRLRSDDTAVYYCARSEVFYGNYADYWGQGTTVTVSSEPKSCDKTHTCPPCPAPEAAGGPSVFLFPPKPKDTLMISRTPEVTCVVVDVSHEDPEVKFNWYVDGVEVHNAKTKPREEQYNSTYRVVSVLTVLHQDWLNGKEYKCKVSNKALPAPIEKTISKAKGQPREPQVCTLPPSRDELTKNQVSLSCAVKGFYPSDIAVEWESNGQPENNYKTTPPVLDSDGSFFLVSKLTVDKSRWQQGNVFSCSVMHEALHNHYTQKSLSLSPGK
notes: as for B1
B4: CD3xB7H6-16 bispecific antibody (bispecific antibody, human IgG1, L234A L235A)
chain 1: not shown
chain 2: B3 chain 2 with V62I, Q169K
notes: as for B1
B5: CD3xB7H6-14 bispecific antibody (bispecific antibody, human IgG1, L234A L235A)
chain 1: not shown
chain 2: B3 chain 2 with V62I, K200T
notes: Heterodimer of two scFv-Fc units, knob-into-hole human IgG1 Fc; lead molecule; also called CD3kB7H6-14
B6: CD3xB7H6-13 bispecific antibody (bispecific antibody, human IgG1, L234A L235A)
chain 1: not shown
chain 2: B3 chain 2 with V62I, I174M, L196M, K200T
notes: as for B1
B7: CD3xB7H6-12 bispecific antibody (bispecific antibody, human IgG1, L234A L235A)
chain 1: not shown
chain 2: B3 chain 2 with Q169K
notes: as for B1
B8: CD3xB7H6-15 bispecific antibody (bispecific antibody, human IgG1, L234A L235A)
chain 1: not shown
chain 2: B3 chain 2 with V62I
notes: as for B1

Biological target: T1, Human B7H6 (ACRO biosystems, cat. No. B76-H52H8) (human, UniProt Q68D85 25-262)
T1 construct: Bought antigen; also called B7H6 antigen; human B7H6 protein
T1 sequence (looked up): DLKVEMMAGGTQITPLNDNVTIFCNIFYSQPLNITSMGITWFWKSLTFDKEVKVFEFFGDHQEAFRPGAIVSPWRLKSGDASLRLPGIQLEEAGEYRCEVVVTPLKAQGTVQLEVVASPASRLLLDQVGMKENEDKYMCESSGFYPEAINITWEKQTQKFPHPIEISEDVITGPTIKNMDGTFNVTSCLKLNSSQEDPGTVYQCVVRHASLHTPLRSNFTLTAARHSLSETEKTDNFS
Assay: ELISA, B7H6 coated, HRP anti-human IgG detection
Procedure: Human B7H6 (ACRO biosystems, cat. No. B76-H52H8) and human CD3 antigen (ACRO biosystems, cat. No. CDD-H52W1) were diluted to 2 μg/mL with coating buffer (35 mM NaHCO₃, 15 mM Na₂CO₃, pH 9.6), respectively. 100 μL of the diluted solution was added to each well of an ELISA plate at 4° C. overnight, and then washes with PBST (0.05% Tween 20-PBS, pH 7.2) 3 times. 300 μL of blocking buffer (1% BSA, 0.05% Tween20-PBS, pH 7.2) was added to the plate and allowed to stand at room temperature for 2 h, followed by washing with PBST three times. The corresponding bispecific antibody was added to each well and incubated at room temperature for 1 h, followed by washing with PBST three times. 100 μL of HRP-rabbit anti human IgG secondary antibody (Boster, cat. No. BA1070) diluted in blocking buffer was added to each well and incubated for 1 h at room temperature, followed by washing with PBST three times. TMB was added into each well. The plate was kept away from light at room temperature for 2-5 min, the reaction was stopped by adding 2 M sulfuric acid in each well, and finally OD450 values were read with microplate reader.

| Binder | binding result |
| --- | --- |
| B1 | binds |
| B2 | binds |
| B3 | binds |
| B4 | binds |
| B5 | binds |
| B6 | binds |
| B7 | binds |
| B8 | binds |
